In paper PMC9063841, “Structural insights into choline-O-sulfatase reveal the molecular determinants for ligand binding” (Acta Crystallographica. Section D, Structural Biology, 2022):

Experiments:
[1] = target: wild-type Sinorhizobium (Ensifer) meliloti choline-O-sulfatase (Sinorhizobium (Ensifer) meliloti CECT4857) (UniProt O69787); test: dynamic light scattering; 20 uM (in protomer units), 20 mM Tris-HCl pH 8.0, 20 C; mass from the hydrodynamic radius assuming a spherical shape
[2] = target: wild-type Sinorhizobium (Ensifer) meliloti choline-O-sulfatase (Sinorhizobium (Ensifer) meliloti CECT4857) (UniProt O69787); test: SEC; 100 ul samples of SmeCOSe (0.1-1 mg/ml, three concentrations) on a Tricorn Superdex 200 column, 20 mM Tris-HCl pH 8.0; mass estimated against standards
SmeCOSe = target: T1, SmeCOSe (Sinorhizobium meliloti, UniProt O69787); test: absorbance at […] nm (p-nitrophenol release); format: biochemical; conditions: pH 7.0
T1 construct: gene betC; full length, C-terminal His6 (pET-21b(+), plasmid pSERQF5), E. coli BL21(DE3); homotetramer, about 201 kDa; Cys54 is formylglycine in wild type; natural difference at residue 105 (printed F105L against strain GR4 CP003933.2, but L105F)

stoichiometry N [1]	stoichiometry N [2]	Km (SmeCOSe)	Molecule
4	4	–	wild-type Sinorhizobium (Ensifer) meliloti choline-O-sulfatase (from UniProt O69787 2-512) (enzyme)
–	–	45.7 ± 12.5 mM	O=[N+]([O-])c1ccc(OS(=O)(=O)O)cc1 [pNPS]
